Patent US20200239573A1 (CRESCENDO BIOLOGICS, published 2020)
Positions count from the first letter of the chain named. Values joined by “and” are separate entries in the source; they are usually repeats but may differ in a detail not shown here. Identical values can stand only once.

B1: Humabody® 1.42 (VHH)
VHH: QVQLVESGGGLVKPGGSLRLSCAASGFTFSDNSMTWMRQAPGKGLEWVSYISSGGGVKFYADSVKGRFTISRDNAKNSLYLQMNSLRADDTAVYYCAREAPLRLGESPHDAFDIWGQGTMVTVSS
notes: human VH single domain antibody
B2: Humabody® 1.43 (VHH)
VHH: B1 VHH with N32S, K58I
notes: as for B1
B3: Humabody® 1.44 (VHH)
VHH: B1 VHH with G56A
notes: as for B1
B4: Humabody® 1.45 (VHH)
VHH: B1 VHH with N32Y, T35S, K58I
notes: as for B1
B5: Humabody® 1.46 (VHH)
VHH: B1 VHH with N32S, T35S, K58I
notes: as for B1
B6: Humabody® 1.47 (VHH)
VHH: B1 VHH with T35S, K58I
notes: as for B1
B7: Humabody® 1.48 (VHH)
VHH: B1 VHH with N32S
notes: as for B1
B8: Humabody® 1.51 (VHH)
VHH: B1 VHH with N32S, G56A, A61T
notes: as for B1
B9: Humabody® 1.53 (VHH)
VHH: B1 VHH with G56S
notes: as for B1
B10: Humabody® 1.58 (VHH)
VHH: B1 VHH with S33T, S53T
notes: as for B1
B11: Humabody® 1.59 (VHH)
VHH: B1 VHH with T35S, G56S
notes: as for B1
B12: Humabody® 1.67 (VHH)
VHH: B1 VHH with D31G, N32S, K58I, W115S
B13: Humabody® 1.69 (VHH)
VHH: B1 VHH with T35S, K58I, W115S
B14: Humabody® 1.70 (VHH)
VHH: B1 VHH with S30G, N32S, G56A, A61T, W115S
B15: Humabody® 1.71 (VHH)
VHH: B1 VHH with S30G, D31G, N32S, A61T, W115S
B16: Humabody® 1.72 (VHH)
VHH: B1 VHH with N32S, T35S, K58I, W115S
B17: Humabody® 1.89 (VHH)
VHH: B1 VHH with Q1E, N32Y, D89E, W115S
notes: as for B1
B18: Humabody® 1.3 (VHH)
VHH: B1 VHH with N32Y, S33T, S53T, G56S, V57I, F59Y, A61T
notes: as for B1
B19: Humabody® 1.6 (VHH)
VHH: B1 VHH with Q1E, V5L, N32Y, S33T, S53T, G56T, V57I, F59Y, A61T, N84S
notes: as for B1
B20: Humabody® 1.7 (VHH)
VHH: B1 VHH with Q1E, N32Y, S33T, S53T, G56T, V57I, F59Y, A61T
notes: as for B1
B21: Humabody® 1.8 (VHH)
VHH: B1 VHH with Q1E, N32Y, S33T, S53T, G56S, V57I, F59Y, A61T, D89G
notes: as for B1
B22: Humabody® 1.41 (VHH)
VHH: B1 VHH with K58I
notes: as for B1
B23: Humabody® 1.49 (VHH)
VHH: B1 VHH with N32S, T35S, S53T
notes: as for B1
B24: Humabody® 1.50 (VHH)
VHH: B1 VHH with G56T, V57I
notes: as for B1
B25: Humabody® 1.52 (VHH)
VHH: B1 VHH with F59Y
notes: as for B1
B26: Humabody® 1.54 (VHH)
VHH: B1 VHH with N32D, K58I
notes: as for B1
B27: Humabody® 1.55 (VHH)
VHH: B1 VHH with W115S
notes: as for B1
B28: Humabody® 1.56 (VHH)
VHH: B1 VHH with G56A, W115L
notes: as for B1
B29: Humabody® 1.84 (VHH)
VHH: B1 VHH with Q1E, N32E, A61T, D89E, W115S
notes: as for B1
B30: Humabody® 1.104 (VHH)
VHH: B1 VHH with Q1E, N32E, M34F, A61T, D89E, W115S
notes: as for B1
B31: Humabody® 1.105 (VHH)
VHH: B1 VHH with Q1E, N32E, M34L, A61T, D89E, W115S
notes: as for B1
B32: 1.77-4GS-non-blocking VH (3) (bispecific antibody)
chain: EVQLVESGGGLVKPGGSLRLSCAASGFTFSDSSMTWMRQAPGKGLEWVSYISSGGGVKFYTDSVKGRFTISRDNAKNSLYLQMNSLRAEDTAVYYCAREAPLRLGESPHDAFDISGQGTMVTVSSGGGGSGGGGSGGGGSGGGGSEVQLVESGGGLVQPGRSLRLSCAASGFTFDDYAMHWVRQAPGKDLEWVSGISWNGGSMGYAASVKGRFTISRDNAKNSLYLQMNSLRAEDTALYYCVREKGPGLTGSTADYYGLDVWGQGTMVTVSS
B33: Humabody® 1.94 (VHH)
VHH: B1 VHH with Q1E, N32W, D89E, W115S
notes: as for B1
B34: Humabody® 1.101 (VHH)
VHH: B1 VHH with Q1E, N32F, D89E, W115S
notes: as for B1

The binders below were run against T1, human PD-1 expressed on cells (CHO human PD-1 cells) (human, UniProt Q15116 21-288) (assay: cell-based or functional assay).
T1 sequence (Q15116 21-288): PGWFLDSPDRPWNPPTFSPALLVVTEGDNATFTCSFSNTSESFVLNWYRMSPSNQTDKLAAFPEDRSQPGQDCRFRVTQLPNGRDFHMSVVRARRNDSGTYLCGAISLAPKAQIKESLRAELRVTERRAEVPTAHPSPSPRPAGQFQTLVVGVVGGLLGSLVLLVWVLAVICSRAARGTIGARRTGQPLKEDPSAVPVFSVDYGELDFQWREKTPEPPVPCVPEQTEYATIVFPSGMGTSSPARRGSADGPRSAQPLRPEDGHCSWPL

Row | Binder | Reporter Assay EC50
1 | B1 | 8.6 nM
2 | B2 | 12 nM
3 | B3 | 41 nM
4 | B4 | 74 nM
5 | B5 | 45 nM
6 | B6 | 27 nM
7 | B7 | 18 nM
8 | B8 | 23 nM
9 | B9 | 14 nM
10 | B10 | 7.1 nM
11 | B11 | 24 nM
12 | B12 | 12 nM
13 | B13 | 35 nM
14 | B14 | 29 nM
15 | B15 | 7.43 nM
16 | B16 | 26.1 nM
17 | B17 | 19 nM

The binders below were run against T2, recombinant human PD-1 Fc chimera (human, UniProt Q15116 25-167) (assay: HTRF inhibition; strep-tagged PD-L1 vs PD-1-Fc).
T2 construct: Bought protein; also called human PD-1-huFc; huPD-1-Fc; not shown: human Fc
T2 sequence (Q15116 25-167 limits assumed, change not shown): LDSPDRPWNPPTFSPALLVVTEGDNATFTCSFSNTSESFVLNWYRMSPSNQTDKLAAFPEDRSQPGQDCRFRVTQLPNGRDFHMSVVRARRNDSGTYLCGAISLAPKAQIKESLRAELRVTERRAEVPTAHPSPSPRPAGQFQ
Method: All samples and reagents were prepared in HTRF assay buffer containing PBS, 0.1% (w/v) BSA and 0.4M Potassium Fluoride. […] Total binding controls containing periplasmic extract sample buffer and non-specific binding controls containing excess untagged competitor were set up on each plate for data normalisation. Time-resolved fluorescent emission at 620 nm and 665 nm was measured following excitation at 337 nm on the BMG PHERAstar plate reader. Data was expressed as a % of the total binding control (% control) after subtraction of the background signal determined from the non-specific binding control wells.

Row | Binder | IC50
18 | B18 | 2.3 nM
19 | B19 | 13.1 nM
20 | B20 | 4.4 nM
21 | B21 | 28.8 nM

These binders were tested against T2, recombinant human PD-1 Fc chimera (assay: SPR Biacore T200, PD-1-huFc amine-coupled, single cycle kinetics).
Method: Binding kinetics of certain VH single domain antibodies binding to human PD-1-huFc were measured by surface plasmon resonance (SPR) technology using Biacore T200 instrument (GE Healthcare). Recombinant human PD-1-huFc was immobilized by standard amine coupling to CM5 sensorschip (GE Healthcare) using in range of 0.1-0.01 mg/ml solution of antigen in 10 mM sodium acetate at pH 5.5. For the reference flow cell, a blank immobilisation was carried out. Single cycle kinetics assays were used to study the interaction, a five point, three-fold dilution series of each Humabody® was made with a top concentration of 30 nM. The binding kinetics were followed by flowing the Humabody® over the chip surface in HBS EP+ buffer at a flow rate of 30 μl/min. The contact time for each of the association steps was 180 seconds and the dissociation step was varied between 1200-3600 seconds. The data was fitted to a 1:1 binding model after double reference subtraction using the Biacore T200 Evaluation software.

Row | Binder | Kd | koff | kon
22 | B22 | 0.0552 nM | 2.96e-05 s⁻¹ | 
23 | B1 | 0.0505 nM | 2.69e-05 s⁻¹ | 532000 M⁻¹ s⁻¹
24 | B2 | 0.0681 nM | 2.79e-05 s⁻¹ | 410000 M⁻¹ s⁻¹
25 | B3 | 0.2 nM and 0.17 nM | 4.18e-05 s⁻¹ and 4e-05 s⁻¹ | 209000 M⁻¹ s⁻¹ and 235000 M⁻¹ s⁻¹
26 | B7 | 0.106 nM | 5.24e-05 s⁻¹ | 496000 M⁻¹ s⁻¹
27 | B23 | 0.11 nM | 2.89e-05 s⁻¹ | 263000 M⁻¹ s⁻¹
28 | B24 | 0.0581 nM | 2.34e-05 s⁻¹ | 402000 M⁻¹ s⁻¹
29 | B8 | 0.317 nM | 5.98e-05 s⁻¹ | 189000 M⁻¹ s⁻¹
30 | B25 | 0.299 nM and 0.256 nM | 6.14e-05 s⁻¹ and 7.61e-05 s⁻¹ | 205000 M⁻¹ s⁻¹ and 297000 M⁻¹ s⁻¹
31 | B26 | 0.0856 nM | 4.53e-05 s⁻¹ | 530000 M⁻¹ s⁻¹
32 | B27 | 0.0364 nM | 1.95e-05 s⁻¹ | 535000 M⁻¹ s⁻¹
33 | B28 | 0.0355 nM | 1.53e-05 s⁻¹ | 432000 M⁻¹ s⁻¹

What follows are binders tested against T3, Strep tagged recombinant human PD-1 (human, UniProt Q15116 25-170, limits assumed) (assay: SPR Biacore T200, strep-tagged PD-1 amine-coupled, single cycle kinetics).
T3 construct: the whole entry is named; also called strep tagged human PD-1; not shown: Strep tag
T3 sequence (Q15116 25-170 limits assumed): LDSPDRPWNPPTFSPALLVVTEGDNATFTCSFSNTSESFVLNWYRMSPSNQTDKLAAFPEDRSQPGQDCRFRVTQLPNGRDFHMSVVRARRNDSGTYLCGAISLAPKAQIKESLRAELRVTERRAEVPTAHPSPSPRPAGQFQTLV
Method: Single cycle kinetics assays were used to study the interaction between human PD-1 with Humabody® on a Biacore T200 instrument (GE Healthcare). Strep tagged recombinant human PD-1 was amine coupled to one flow cell of a CM-5 chip to create a low density surface (14 RU) using standard Biacore reagents. For the reference flow cell, a blank immobilisation was carried out. A five-point, three-fold dilution series of each Humabody® was made with a top concentration of 25 nM. The binding kinetics were followed by flowing the Humabody® over the chip surface in HBS EP+ buffer at a flow rate of 30 μl/min. The contact time for each of the association steps was 180 seconds and the dissociation step was 3300 seconds. The data was fitted to a 1:1 binding model after double reference subtraction using the Biacore T200 Evaluation software.

Row | Binder | Kd | koff | kon
34 | B29 | 0.091 nM | 7.6e-05 s⁻¹ | 830000 M⁻¹ s⁻¹
35 | B17 | 0.0342 nM | 5.6e-05 s⁻¹ | 1.6e+06 M⁻¹ s⁻¹
36 | B30 | 0.08 nM | 6.3e-05 s⁻¹ | 780000 M⁻¹ s⁻¹
37 | B31 | 0.091 nM | 8.7e-05 s⁻¹ | 950000 M⁻¹ s⁻¹
38 | B32 | 0.063 nM | 3.5e-05 s⁻¹ | 550000 M⁻¹ s⁻¹

These binders were tested against T1, human PD-1 expressed on cells (CHO …) (assay: FMAT epitope competition on CHO human PD-1 cells; competitor 1 nM 1.1-Strep).
Method: For the epitope competition assay reagents were prepared in FMAT assay buffer. […] Plates were incubated for a minimum of 1.5 hours at room temperature then fluorescence measured in the FL2 (502 nm-537 nm) and FL5 (677-800 nm) channels on the Mirrorball plate reader (TTP) following excitation at 488 nm and 640 nm. Data was expressed as a % of the total binding control (i.e. % control) after subtraction of the background signal determined from the non-specific binding control wells.

Row | Binder | IC50
39 | B1 | 3.5 nM
40 | B2 | 1.3 nM
41 | B3 | 1.9 nM
42 | B4 | 2.5 nM
43 | B5 | 1.8 nM
44 | B6 | 4.4 nM
45 | B8 | 4.7 nM
46 | B9 | 5.4 nM
47 | B10 | 4.6 nM
48 | B11 | 7.8 nM
49 | B33 | 4.2 nM
50 | B34 | 3 nM
51 | B17 | 2.4 nM
